Changes are numbered by the printed parent chain.
B1: 03A08R3 His-tagged VHH (VHH)
VHH: QVQLVESGGGLVQAGGSLRLSCAASGRTSSIYGMGWFRQAPGKEREFVAAISWSAGRTYHADSVKGRFTISRDNAKNMVYLQMDKMKPGDTAVYYCAARRAPELLSDYTQKPEEIGTYHYWGQGTLVTVSS
B2: 01E11R2 His-tagged VHH (VHH)
VHH: QVQLVESGGGLVQTGGSLRLSCAASGLTFSSYTMGWFRQAPGKEREFVAAISWGGASTWYADSVKGRFTISRDNAKTMVYLQMNGLKPEDTAVYYCAKGRNNGYATAVRAYDYWGQGTLVTVSS
B3: 01C02R3LS His-tagged VHH (VHH)
VHH: QVQLVESGGGLVQAGDSLRLSCAASGRTRTTYGMGWFRQAPGKEREFVTTITWSGSTNYKYYADSVKGRFTISRDNAKNTVYLQMNSLKPDDTAVYYCAASTVLTDPRVPTEYDYWGQGTQVTVSS
B4: 01H06R3L His-tagged VHH (VHH)
VHH: B3 VHH with Q1E, S56P, V81A
B5: 01C08R2L His-tagged VHH (VHH)
VHH: B3 VHH with Q1E, R29F, M34V
B6: 01H11R2LS His-tagged VHH (VHH)
VHH: B3 VHH with Q1E, R29L, T49A, T52K, D91E, S101G, T105G, P110L, T111N, Q121L
B7: 02E01R3LS His-tagged VHH (VHH)
VHH: B3 VHH with R29F, T105R
B8: 01G08R3LS His-tagged VHH (VHH)
VHH: B3 VHH with R29F, A40G, T49A, A63T, D91E, V109R, P110L, T111N
B9: 01B10R3L His-tagged VHH (VHH)
VHH: QVQLVESGGGLVQAGDSLRLSCAASGRTFTTYVMGWFRQPPGKEREFVATISWSGSTTYKYYADSVKGRFTISRDNAKNTVYLQMNSLKPEDTAVYYCAASTVVADPRAPNEYDYWGQGTQVTVSS
B10: 02G03R3 His-tagged VHH (VHH)
VHH: EVQLVESGGGLVQAGGSLRLSCAASGMPDNIFSIKTMGWYRQAPGKERELVAAITSGGSTNYGDSVKDRFTISRDRIENTVNLEMNNLKPEDTAVYTCHADLTYIRFQDMEYWGKGTQVTVSS
B11: 02G06R3 His-tagged VHH (VHH)
VHH: EVQLVESGGGLVQAGGSLRLSCAASGRTFDSYAMGWFRQAPGKEREFVAAISWTGGSTDYADSVKGRFTISRDNAKNTVYLQMDSLKPEDTAVYYCAAEVVGRDVTTMYRVSGLEYEYDYWGQGTQVTVSS
B12: 02H11R3 His-tagged VHH (VHH)
VHH: EVQLVESGGGSVQAGGSLRLSCAASGRTFSNYAMGWFRQAPGKEREFVAGISRSGGSTYSADSVKGRFTISRDNAKNTVYLQMNSLKPEDTAVYYCAADGLDYALGFRGDYWGQGTQVTVSS
B13: 02D06R3 His-tagged VHH (VHH)
VHH: QVQLVESGGGLVQPGGRLRLSCAASGSIFSIRDMAWYRQAPGKQREWVAIAARGGSTHYADSVKGRFTISRDNAKNTVYLQMNTLEPEDTAAYYCNAEVATMIQPGFRDYWGQGTQVTVSS
B14: 01A09R2 His-tagged VHH (VHH)
VHH: EVQLVESGGGLVQAGGSLRLSCAASGRTFSSNPMGWFRQAPGKEREFVAAISWSGGGTYYADSVKGRFTISRDNAKNTVTLQMNSLKPEDTAVYYCASRDYSDPISLWVEDREYDYWGQGTQVTVSS
B15: 03B07R3 His-tagged VHH (VHH)
VHH: B14 VHH with E1Q, Q122L
B16: 01F01R2 His-tagged VHH (VHH)
VHH: B14 VHH with E1Q
B17: 03D05R3 His-tagged VHH (VHH)
VHH: B14 VHH with D111G, Q122L
B18: 01C01R2LS His-tagged VHH (VHH)
VHH: QVQLVESGGGLQQAGGSLRLSCAASGRTVTVMTVGWFRQAPGKEREFVAAITMYGERTYYADSVKGRFTISRDNAKNTVDLQMNSLKPEDAAVYYCAARTYVSGIYDRFDDYNYWGQGTQVTVSS
B19: 01C01R2L His-tagged VHH (VHH)
VHH: QVQLVESGGGLVQAGGSLRLSCAASGRTLRSYIVGWFRQAPGKEREFVAAVTWSDGRRVTADPVKGRFTISRDNAKNTVYLQMDSLKPEDAAVYYCAVSRGGAYEYSRAYEYWGQGTLVTVSS
B20: 02B03R3 His-tagged VHH (VHH)
VHH: EVQLVESGGGLVQSGGQLRLSCAASGSIASIRDMAWYRQAPGKQRELVAIFARGGTTHYADSVKGRFTISRDNAKNTVYLQMNSLEPEDTAAYYCNAEVATMFQPGFRDYWGRGTLVTVSS
B21: 02H04R3 His-tagged VHH (VHH)
VHH: B13 VHH with Q1E, A35G, W47L, A51F, T84S
B22: 01C03R3L His-tagged VHH (VHH)
VHH: B13 VHH with A35G, W47L, A51F, T84S, Q116L
B23: 01A03R3L His-tagged VHH (VHH)
VHH: B20 VHH with S14P, I31V, E46G
B24: 01G02R2LS His-tagged VHH (VHH)
VHH: QVQLVESGGGLVQAGDSLALSCAGSGDTFSNYAMGWFRQAPGKEREFVADISWYGANIGYADSVKGRFTISRDNAKNMVTLRMNSLKPEDTAVYYCAADRNHWPVKGDYWGQGTQVTVSS
B25: 02G04R3 His-tagged VHH (VHH)
VHH: QVQLVESGGGLVQAGGSLRLSCAANGRAANAYAVGWFRQAPGKEREFVAHIRWNGGRTAYADSVKGRFTISRDDAKNTVYLQMDSLKPEDTAVYYCAEDTNPDAFGDLRLPSEYEYWGQGTQVTVSS
B26: 01B01R3 His-tagged VHH (VHH)
VHH: QVQLVESGGGLVQAGGSLRLSCAASGRTFSSYAMGWFRQAPGKEREFVAVISWSGGSTYYADSVKGRFTISRDNAKNTVYLQMNSLKPEDTAVYYCASGEQPGSNRPYIPEQPIEFMPTDYPSWYDYWGQGTLVTVSS
B27: 01F03R2 His-tagged VHH (VHH)
VHH: B26 VHH with L133Q
B28: 01A01R3 His-tagged VHH (VHH)
VHH: EVQLVESGGGLVQAGGSLRLSCAASGSGRTFTSYTMGWFRQAPGKEREFVSALTWADDSTYYKYYADSMKGRLTISRDNAKNTVYLQMNSLKPEDTAVYYCVATGRGLTYDPRDRRKYDYWGQGTQVTVSS

What follows are binders tested against T1, recombinant human pIgR (hpIgR) (human, UniProt P01833 19-638, limits assumed) (assay: ELISA, periplasmic VHH, BSA subtracted).
T1 construct: probably the ECD
T1 sequence (P01833 19-638 limits assumed): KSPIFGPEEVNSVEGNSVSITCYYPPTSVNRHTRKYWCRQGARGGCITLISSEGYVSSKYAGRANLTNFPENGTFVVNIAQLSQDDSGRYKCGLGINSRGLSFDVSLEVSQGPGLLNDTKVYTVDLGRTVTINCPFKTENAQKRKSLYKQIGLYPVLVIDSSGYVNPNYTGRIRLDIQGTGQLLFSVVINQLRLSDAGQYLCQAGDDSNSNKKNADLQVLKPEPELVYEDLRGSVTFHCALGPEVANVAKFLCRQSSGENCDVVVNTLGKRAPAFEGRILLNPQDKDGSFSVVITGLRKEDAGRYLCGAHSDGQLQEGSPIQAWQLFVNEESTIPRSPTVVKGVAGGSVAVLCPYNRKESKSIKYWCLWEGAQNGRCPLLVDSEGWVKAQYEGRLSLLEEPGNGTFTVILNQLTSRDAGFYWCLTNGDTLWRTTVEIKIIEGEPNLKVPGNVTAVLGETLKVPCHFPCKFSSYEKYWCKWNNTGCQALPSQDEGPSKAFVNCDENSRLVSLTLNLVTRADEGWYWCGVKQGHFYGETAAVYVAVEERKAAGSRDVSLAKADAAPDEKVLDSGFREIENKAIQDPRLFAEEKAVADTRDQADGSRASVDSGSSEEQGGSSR
Experimental: Initial Library Screening: After each panning round showing enrichment, 94 individual clones were expressed and tested in an off-phage initial screen for specific binding to mpIgR or hpIgR (respectively depending on the antigen used). Screening of monoclones in an off-phage format was performed by transforming the phagemid pool into a non-amber-suppressor strain of E. coli and picking random colonies. The VHH proteins were recovered in the periplasmic fraction by performing osmotic shock. Periplasmic fractions containing His-tagged nanobodies were tested for binding to hpIgR or mpIgR. Bound nanobody was detected with a polyclonal anti-alpaca VHH domain antibody. Each clone was also tested for non-specific binding to BSA in parallel. The ELISA values obtained on BSA were subtracted from the ELISA values obtained on the respective pIgR antigen.
Repeat Testing of Positive Hits: The hits identified in the initial screen of the phage pools were re-tested for binding to either hpIgR or mpIgR. Periplasmic fractions were prepared again by performing osmotic shock. Periplasmic fractions containing His-tagged nanobodies were tested for binding to mpIgR. In this assay, bound nanobody was detected with an anti-VHH antibody. Each clone was also tested for non-specific binding to BSA in parallel. The ELISA values obtained on BSA were subtracted from the ELISA values obtained on the respective pIgR antigen.
In the case of B1, the “ELISA (OD)” value is reported as 2.1 OD. B2 gave an ELISA (OD) of 2.01 OD. For B3, the “ELISA (OD)” value was 2.01 OD. For B4, the “ELISA (OD)” value was 1.87 OD. B5 was tested, and the “ELISA (OD)” value was 1.98 OD. For B6, the “ELISA (OD)” value was 0.43 OD. For B7, the “ELISA (OD)” value was 1.54 OD. In the case of B8, the “ELISA (OD)” value is reported as 2.41 OD. In the case of B9, the “ELISA (OD)” value is reported as 2.04 OD. For B10, the “ELISA (OD)” value was 2 OD. For B11, the ELISA (OD) was 1.8 OD. Work on B12 yielded an ELISA (OD) of 1.97 OD. B13 gave an ELISA (OD) of 2.16 OD. With B14 the “ELISA (OD)” value was 1.86 OD. B15 was tested, and the “ELISA (OD)” value was 2.19 OD. For B16, the “ELISA (OD)” value was 2.2 OD. For B17, the “ELISA (OD)” value was 2.29 OD. In the case of B18, the ELISA (OD) is reported as 0.82 OD. For B19, the ELISA (OD) was 1.97 OD. In the case of B20, the “ELISA (OD)” value is reported as 0.44 OD. B21 was tested, and the “ELISA (OD)” value was 2.4 OD. For B22, the “ELISA (OD)” value was 1.77 OD. In the case of B23, the “ELISA (OD)” value is reported as 2.03 OD. With B24 the ELISA (OD) was 1.62 OD. With B25 the “ELISA (OD)” value was 0.93 OD. B26 was tested, and the “ELISA (OD)” value was 1.68 OD. In the case of B27, the “ELISA (OD)” value is reported as 2.1 OD. B28 was tested, and the “ELISA (OD)” value was 0.91 OD.

From patent US20220112276A1 (Janssen / Centocor, published 2022)
